Among the data in article PMC6503762 are stoichiometry N values, retold here.

One may read the stoichiometry N as the number of molecules, sites or subunits per partner or assembly.

The target of this test is MSBI1.176 Rep WH1 domain (residues 1-135) (MSBI1.176 (bovine meat and milk factor DNA isolated from a brain sample of a human patient with multiple sclerosis)). Briefly: crystal structure; hanging-drop vapor diffusion at 18°C, 1:1 protein (5 mg/ml in 25 mM Tris-HCl pH 7.6, 300 mM NaCl) and 0.2 M magnesium acetate, 20% PEG 3350; S-SAD phasing; 1.53 Å; one dimer in the asymmetric unit.

The substance “MSBI1.176 Rep WH1 domain (residues 1-135) (domain or fragment)” yielded a stoichiometry N of 2.
